# Patent US20220349880
# Experiments:
# [1] = tested on: Peptide H-3: H2N-(CH2)4-CO-Pro-Leu-Arg-Phe-Gly-Ala-NH-CH2-Fc
# [2] = tested on: Peptide H-15: H2N-(CH2)4-CO-Pro-Leu-Ala-Phe-Val-Ala-NH-CH2-Fc
# [3] = tested on: Peptide H-4: H2N-(CH2)4-CO-Pro-Val-Gly-Phe-Val-Ala-NHCH2-Fc
# [4] = tested on: Peptide H-2: H2N-(CH2)4-CO-Pro-Thr-Arg-Phe-Val-Gly-NHCH2-Fc
# [5] = tested on: Peptide H-16: H2N-(CH2)4-CO-Pro-Leu-Ala-Gly-Val-Ala-NH-CH2-Fc
# [6] = tested on: Peptide H-7: H2N-(CH2)4-CO-Pro-Leu-Gly-Gly-Val-Ala-NHCH2-Fc
# [7] = tested on: Peptide H-1: H2N-(CH2)4-CO-Lys-Val-Arg-Phe-Val-Gly-NHCH2-Fc
# [8] = tested on: Peptide H-5: H2N-(CH2)4-CO-Ala-Pro-Leu-Arg-Phe-Gly-Ala-Ala-NHCH2-Fc
# [9] = tested on: Peptide H-6: H2N-(CH2)4-CO-Pro-Leu-Gly-Phe-Val-Ala-NHCH2-Fc
substance,measurement,setting,value
"recombinant human cathepsin B (rhCB), activated by incubation in 25 mM MES buffer (pH 5.0) containing 5 mM DTT for 15 min","proteolysis rate (electrochemical measurements, fluorogenic assays and HPLC-MS analysis)",[1],"three peptides H-3, H-15 and H-16 were selected for this study due to the higher proteolysis rates by cathepsin B compared to other candidates"
same,"proteolysis rate (electrochemical measurements, fluorogenic assays and HPLC-MS analysis)",[2],"three peptides H-3, H-15 and H-16 were selected for this study due to the higher proteolysis rates by cathepsin B compared to other candidates"
same,proteolytic activity among about 30 synthesized peptides,[2],has shown the highest proteolytic activity by cathepsin B
same,"proteolysis rate (electrochemical measurements, fluorogenic assays and HPLC-MS analysis); one of the 'other candidates' with a lower rate",[3],"three peptides H-3, H-15 and H-16 were selected for this study due to the higher proteolysis rates by cathepsin B compared to other candidates"
same,"proteolysis rate (electrochemical measurements, fluorogenic assays and HPLC-MS analysis); one of the 'other candidates' with a lower rate",[4],"three peptides H-3, H-15 and H-16 were selected for this study due to the higher proteolysis rates by cathepsin B compared to other candidates"
same,"proteolysis rate (electrochemical measurements, fluorogenic assays and HPLC-MS analysis)",[5],"three peptides H-3, H-15 and H-16 were selected for this study due to the higher proteolysis rates by cathepsin B compared to other candidates"
same,"proteolysis rate (electrochemical measurements, fluorogenic assays and HPLC-MS analysis); one of the 'other candidates' with a lower rate",[6],"three peptides H-3, H-15 and H-16 were selected for this study due to the higher proteolysis rates by cathepsin B compared to other candidates"
same,"proteolysis rate (electrochemical measurements, fluorogenic assays and HPLC-MS analysis); one of the 'other candidates' with a lower rate",[7],"three peptides H-3, H-15 and H-16 were selected for this study due to the higher proteolysis rates by cathepsin B compared to other candidates"
same,"proteolysis rate (electrochemical measurements, fluorogenic assays and HPLC-MS analysis); one of the 'other candidates' with a lower rate",[8],"three peptides H-3, H-15 and H-16 were selected for this study due to the higher proteolysis rates by cathepsin B compared to other candidates"
same,"proteolysis rate (electrochemical measurements, fluorogenic assays and HPLC-MS analysis); one of the 'other candidates' with a lower rate",[9],"three peptides H-3, H-15 and H-16 were selected for this study due to the higher proteolysis rates by cathepsin B compared to other candidates"
